Legend:
[1] = target: human NT5E-Biotin (NT5E is GenbankID: NP_002517.1, position: 1-552) (human) (UniProt P21589); assay: ELISA on streptavidin-captured human NT5E-Biotin; antibody 1:27 dilution of 0.333 ug/mL; replicate 2
[2] = target: human NT5E-Biotin (NT5E is GenbankID: NP_002517.1, position: 1-552) (human) (UniProt P21589); assay: ELISA on streptavidin-captured human NT5E-Biotin; antibody 0.333 ug/mL; replicate 2
[3] = target: human NT5E-Biotin (NT5E is GenbankID: NP_002517.1, position: 1-552) (human) (UniProt P21589); assay: ELISA on streptavidin-captured human NT5E-Biotin; antibody 1:9 dilution of 0.333 ug/mL; replicate 1
[4] = target: human NT5E-Biotin (NT5E is GenbankID: NP_002517.1, position: 1-552) (human) (UniProt P21589); assay: ELISA on streptavidin-captured human NT5E-Biotin; antibody 1:9 dilution of 0.333 ug/mL; replicate 2
[5] = target: human CD73 expressed on cells (human PBMC CD8+ T cells and CD19+ B cells; endogenous CD73 of MDA-MB-231 and U87-MG cells) (human) (UniProt P21589); assay: cell-based or functional assay
Chain of human CD73 expressed on cells (human PBMC CD8+ T cells and CD19+ B cells; endogenous CD73 of MDA-MB-231 and U87-MG cells) (human) (P21589 27-549): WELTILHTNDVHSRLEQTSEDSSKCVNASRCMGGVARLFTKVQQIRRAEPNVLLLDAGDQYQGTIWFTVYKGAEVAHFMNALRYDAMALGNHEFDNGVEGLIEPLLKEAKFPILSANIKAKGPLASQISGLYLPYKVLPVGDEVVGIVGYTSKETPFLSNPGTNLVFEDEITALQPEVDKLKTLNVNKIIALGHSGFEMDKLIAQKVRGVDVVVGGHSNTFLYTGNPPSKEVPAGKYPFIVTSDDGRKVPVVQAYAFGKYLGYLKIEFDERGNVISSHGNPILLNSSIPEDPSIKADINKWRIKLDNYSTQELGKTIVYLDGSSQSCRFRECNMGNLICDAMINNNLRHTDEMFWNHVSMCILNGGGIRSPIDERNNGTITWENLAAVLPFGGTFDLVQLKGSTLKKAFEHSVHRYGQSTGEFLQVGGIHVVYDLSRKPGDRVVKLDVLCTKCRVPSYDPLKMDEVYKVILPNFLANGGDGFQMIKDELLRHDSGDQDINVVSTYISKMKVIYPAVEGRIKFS

[6] = target: human NT5E-Biotin (NT5E is GenbankID: NP_002517.1, position: 1-552) (human) (UniProt P21589); assay: ELISA on streptavidin-captured human NT5E-Biotin; antibody 1:81 dilution of 0.333 ug/mL; replicate 2
[7] = target: human NT5E-Biotin (NT5E is GenbankID: NP_002517.1, position: 1-552) (human) (UniProt P21589); assay: ELISA on streptavidin-captured human NT5E-Biotin; antibody 1:27 dilution of 0.333 ug/mL; replicate 1
[8] = target: human NT5E-Biotin (NT5E is GenbankID: NP_002517.1, position: 1-552) (human) (UniProt P21589); assay: ELISA on streptavidin-captured human NT5E-Biotin; antibody 0 (blank well); replicate 1
[9] = target: human NT5E-Biotin (NT5E is GenbankID: NP_002517.1, position: 1-552) (human) (UniProt P21589); assay: ELISA on streptavidin-captured human NT5E-Biotin; antibody 1:81 dilution of 0.333 ug/mL; replicate 1
[10] = target: human NT5E-Biotin (NT5E is GenbankID: NP_002517.1, position: 1-552) (human) (UniProt P21589); assay: ELISA on streptavidin-captured human NT5E-Biotin; HRP goat anti-human IgG
[11] = target: human NT5E-Biotin (NT5E is GenbankID: NP_002517.1, position: 1-552) (human) (UniProt P21589); assay: ELISA on streptavidin-captured human NT5E-Biotin; antibody 1:3 dilution of 0.333 ug/mL; replicate 2
[12] = target: human NT5E-Biotin (NT5E is GenbankID: NP_002517.1, position: 1-552) (human) (UniProt P21589); assay: ELISA on streptavidin-captured human NT5E-Biotin; antibody 1:729 dilution of 0.333 ug/mL; replicate 2
[13] = target: human NT5E-Biotin (NT5E is GenbankID: NP_002517.1, position: 1-552) (human) (UniProt P21589); assay: ELISA on streptavidin-captured human NT5E-Biotin; antibody 1:3 dilution of 0.333 ug/mL; replicate 1
[14] = target: human NT5E-Biotin (NT5E is GenbankID: NP_002517.1, position: 1-552) (human) (UniProt P21589); assay: ELISA on streptavidin-captured human NT5E-Biotin; antibody 1:729 dilution of 0.333 ug/mL; replicate 1
[15] = target: human NT5E-Biotin (NT5E is GenbankID: NP_002517.1, position: 1-552) (human) (UniProt P21589); assay: ELISA on streptavidin-captured human NT5E-Biotin; antibody 0.333 ug/mL; replicate 1
[16] = target: human NT5E-Biotin (NT5E is GenbankID: NP_002517.1, position: 1-552) (human) (UniProt P21589); assay: ELISA on streptavidin-captured human NT5E-Biotin; antibody 1:243 dilution of 0.333 ug/mL; replicate 1
[17] = target: human NT5E-Biotin (NT5E is GenbankID: NP_002517.1, position: 1-552) (human) (UniProt P21589); assay: ELISA on streptavidin-captured human NT5E-Biotin; antibody 1:243 dilution of 0.333 ug/mL; replicate 2
[18] = target: human NT5E-Biotin (NT5E is GenbankID: NP_002517.1, position: 1-552) (human) (UniProt P21589); assay: ELISA on streptavidin-captured human NT5E-Biotin; antibody 0 (blank well); replicate 2

Chain of human NT5E-Biotin (NT5E is GenbankID: NP_002517.1, position: 1-552) (human) (P21589 27-552 limits assumed, form in doubt): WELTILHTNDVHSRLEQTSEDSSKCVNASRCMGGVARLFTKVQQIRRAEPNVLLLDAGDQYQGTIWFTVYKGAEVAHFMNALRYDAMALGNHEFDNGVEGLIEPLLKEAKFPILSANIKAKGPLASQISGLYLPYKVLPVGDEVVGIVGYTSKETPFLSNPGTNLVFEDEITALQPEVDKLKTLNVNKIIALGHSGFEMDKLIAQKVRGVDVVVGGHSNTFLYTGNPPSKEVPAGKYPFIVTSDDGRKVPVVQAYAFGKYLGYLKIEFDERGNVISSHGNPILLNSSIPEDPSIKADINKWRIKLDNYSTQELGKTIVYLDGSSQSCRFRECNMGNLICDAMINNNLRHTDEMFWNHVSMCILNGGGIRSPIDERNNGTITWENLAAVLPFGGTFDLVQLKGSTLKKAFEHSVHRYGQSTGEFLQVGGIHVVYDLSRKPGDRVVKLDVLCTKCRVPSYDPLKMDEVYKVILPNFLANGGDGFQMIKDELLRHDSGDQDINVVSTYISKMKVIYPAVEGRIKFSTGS

OD (450 nm) [1]: 1.74 OD450
OD (450 nm) [2]: 2.53 OD450
OD (450 nm) [3]: 2.27 OD450
OD (450 nm) [4]: 2.28 OD450
Inhibition rate EC50 (nM): enzyme activity of CD73 expressed by human PBMC membrane (AMP/ATP CellTiter-Glo read-out) [5]: 0.0064 nM
internalization rate of CD73 in MDA-MB-231 cells after 22 hours (FACS) [5]: 50.5%
internalization rate of CD73 in U87-MG cells after 22 hours (FACS) [5]: 73.7%
OD (450 nm) [6]: 1.03 OD450
OD (450 nm) [7]: 1.77 OD450
OD (450 nm) [8]: 0.121 OD450
OD (450 nm) [9]: 1.06 OD450
EC50 [10]: 0.048 nM
OD (450 nm) [11]: 2.6 OD450
OD (450 nm) [12]: 0.275 OD450
OD (450 nm) [13]: 2.57 OD450
OD (450 nm) [14]: 0.272 OD450
OD (450 nm) [15]: 2.55 OD450
OD (450 nm) [16]: 0.536 OD450
OD (450 nm) [17]: 0.528 OD450
OD (450 nm) [18]: 0.116 OD450
Substance: positive control antibody MEDI9447 (Oleclumab)

Reference: patent publication US20240218074A1
